This is an account of results in US20110085970A1 (published 2011).

Assay [1] deals with T1, human O8E (B7-H4) expressed on cells (human, UniProt Q7Z7D3 25-282).
T1 construct: Full length O8E on transfected HEK, CHO and SKOV3 cells, or endogenous on SKBR3 and ZR-75 cells and in human tumour biopsies; also called B7S1; B7x
T1 sequence: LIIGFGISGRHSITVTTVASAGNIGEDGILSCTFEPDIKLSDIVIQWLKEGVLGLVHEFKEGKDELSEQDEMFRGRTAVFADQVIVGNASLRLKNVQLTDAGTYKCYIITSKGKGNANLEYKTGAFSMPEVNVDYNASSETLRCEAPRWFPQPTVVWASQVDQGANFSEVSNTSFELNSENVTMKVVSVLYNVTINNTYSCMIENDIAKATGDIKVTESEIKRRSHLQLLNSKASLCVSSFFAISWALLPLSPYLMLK
Put plainly: titration of labelled antibody on O8E-transfected cells (Scatchard set-up), sigmoidal dose response fit.
Protocol: HEK cells were transfected with full length O8E using standard techniques and grown in RPMI media containing 10% fetal bovine serum (FBS). […] Millipore plates (MAFB NOB) were coated with 1% nonfat dry milk in water and stored a 4° C. overnight. The plates were washed three times with 0.2 ml of binding buffer. Fifty microliters of buffer alone was added to the maximum binding wells (total binding). Twenty-five microliters of buffer alone was added to the control wells (non-specific binding). Varying concentration of ¹²⁵I-anti-O8E antibody was added to all wells in a volume of 25 μl. (In some cases FITC labeled antibodies were used for the titration since unlabeled material was not available, binding may be compromised in these instances.) Varying concentrations of unlabeled antibody at 100 fold excess was added in a volume of 25 μl to control wells and 25 μl of O8E transfected CHO cells (2×10⁶ cells/ml) in binding buffer were added to all wells. The plates were incubated for 2 hours at 200 RPM on a shaker at 4° C. At the completion of the incubation the Millipore plates were washed three times with 0.2 ml of cold wash buffer (24 mM Tris pH 7.2, 500 mM NaCl, 2.7 mM KCl, 2 mM Glucose, 1 mM CaCl₂, 1 mM MgCl₂, 0.1% BSA.). The filters were removed and counted in a gamma counter. […]

Assay [2] deals with T2, Recombinant Penta-B7H4 protein with a C-9 tag (human, UniProt Q7Z7D3 25-259).
T2 construct: also called Penta-O8E; Penta-B7H4-C9; not shown: 'Penta' part and C-9 tag
T2 sequence: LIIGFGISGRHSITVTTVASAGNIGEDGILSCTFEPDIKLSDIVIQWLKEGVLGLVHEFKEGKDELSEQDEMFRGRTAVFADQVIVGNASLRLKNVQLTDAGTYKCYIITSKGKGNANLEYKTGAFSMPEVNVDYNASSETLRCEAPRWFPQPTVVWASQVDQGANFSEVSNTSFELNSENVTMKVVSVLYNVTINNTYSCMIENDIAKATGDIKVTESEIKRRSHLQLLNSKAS
Put plainly: ELISA: anti-mouse Fc coat, monoclonal anti-C9 at 0.6 ug/ml, Penta-B7H4 titrated (varied component), human antibody fixed at 1 ug/ml.

Assay [3] deals with T1, human O8E (B7-H4) expressed on cells. Briefly: titration of labelled antibody on O8E-transfected cells (Scatchard set-up), sigmoidal dose response fit; BOTTOM and TOP fixed for incomplete curve.

B1: 13D12 human monoclonal antibody (anti-O8E / anti-B7-H4) (antibody, V domains shown)
VH: QVQLQQWGAGLLKPSETLSLTCAVYGGSFSGYYWSWIRQPPGKGLEWIGKINHSGSTNYNPSLKSRVTISVDTSKNQFSLKLNSVTAADTAVYYCARELRYFENYYYGMDVWGQGTTVTVSS
VL: not shown
notes: Hybridoma-derived fully human IgG with a kappa light chain (VK A27); also called 13D12.G10
One may read the EC50 as the concentration that produces a half-maximal response. On to B1, for which, in assay [1], the EC50 is 0.746 nM. In other words, the sub-nanomolar range.

B2: 1G11 human monoclonal antibody (anti-O8E / anti-B7-H4) (antibody, V domains shown)
VH: QVQLQQWGAGLLKPSETLSLTCAVYGGSFSDYFWTWIRQPPGKGLEWIGEINHSGTTNYNPSLKSRVTISADTSKNQFSLRLSSVTAADTAVYYCARLSSWSNWAFEYWGQGTLVTVSS
VL: EIVLTQFPGTLSLSPGERATLSCRASQSVSSTYLAWYQQKPGQAPRVLIYGASRRATGIPDRFSGSGSGTDFTLTISRLEPEDFAVYYCQQYGSSPLTFGGGTKVEIK
notes: Hybridoma-derived fully human IgG with a kappa light chain (VK A27); also called 1G11.H11-FITC; 1G11.H1
Molecule B2 had an EC50 in assay [1] of 1.69 nM.

B3: 12E1 human monoclonal antibody (anti-O8E / anti-B7-H4) (antibody, V domains shown)
VH: EVQLVESGGGLVQPGRSLRLSCVASGFTFDDYAMHWVRQAPGKGLEWVSGISWNSGSIGYADSVKGRFTISRDNAKNSLYLQMNSLRAEDTALYYCTKALYGSGSSDFYYYGMDVWGQGTTVAVSS
VL: EIVLTQSPATLSLSPGERATLSCRASQSVSSYLAWYQQKPGQAPRLLIYDASNRATGIPARFSGSGSGTDFTLTISSLEPEDFAVYYCQQRRTFGQGTKVEIK
notes: Hybridoma-derived fully human IgG with a kappa light chain (VK L6/JK1); also called 12E1.G9
As usually defined, the EC50 (read off the curve) is the concentration that produces a half-maximal response. On to B3, for which, in assay [2], the half-maximal effective concentration (EC50 (read off the curve)) was approximately 0.05 µg/mL. This molecule registered an EC50 in assay [3] of approximately 19.8 nM.
